The source of these data is paper PMC2670497.

In experiment [1] the target is purified recombinant vimentin protein (UniProt P08670). The experiment in a line: ELISA; 1 ug vimentin immobilised overnight on Immulon 2 HB plates in 0.1 M KPO4 pH 7.0; varying molar concentrations of CPMV, 1 hour, room temperature; detected with anti-CPMV polyclonal antibody; avidity not ruled out.
The target in experiment [2] is vimentin expressed from pCMV-SPORT6-vimentin in MFT-16 vim-/- cells (UniProt P08670). The experiment in a line: flow cytometry on cells; cells transfected with pCMV-SPORT6-vimentin or mock-transfected, 24 hours later incubated with wildtype CPMV at 5x10^5 virions per cell for 2 hours; percent CPMV-positive cells; data not shown.
Experiment [3] addresses surface vimentin on HeLa cells (human (endogenous in HeLa)) (UniProt P08670). The description is as above.

For “Cowpea mosaic virus (CPMV) particles, wild type (complex)”, the EC50 in experiment [1] came to 3.72 nM. Besides, the percent of cells CPMV-positive in experiment [2] came out at 1.21%; in experiment [3], 5.36%.
